Test results as given in paper PMC9254573 (Biochemistry, 2022).
Each block holds one molecule with its values, some of them ahead of it. Ends that are not written are not given here.

Experiments:
CCR7 (Homo sapiens) [1] = assay: nanoDSF; settings: cited from earlier work
[2] = molecular target: CCR7 N-terminus (Homo sapiens) (UniProt P32248); assay: nanoDSF; settings: cited from earlier work
CCR7 (Homo sapiens) [3] = assay: nanoDSF; settings: cited from earlier work; remark: listed apart in the source
CCR7 (Homo sapiens) [4] = assay: NMR; settings: cited from earlier work
[5] = molecular target: T1, Recombinant human [U-15N] CCL19 (human, UniProt Q99731 22-98, uniformly 15N-labelled ([U-15N])); assay: NMR titration
T1 sequence (looked up): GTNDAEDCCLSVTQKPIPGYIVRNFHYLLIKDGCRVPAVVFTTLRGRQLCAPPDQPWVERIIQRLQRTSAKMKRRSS

Chain of CCR7 N-terminus (Homo sapiens) (P32248 25-59): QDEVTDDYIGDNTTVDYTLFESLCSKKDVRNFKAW
Chain of CCL21 (O00585 24-134): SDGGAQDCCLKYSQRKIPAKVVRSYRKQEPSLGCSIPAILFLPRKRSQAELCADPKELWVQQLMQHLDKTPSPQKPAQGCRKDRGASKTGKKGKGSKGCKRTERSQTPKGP

Molecule: CCL19 (from UniProt Q99731)
- Kd (CCR7 (Homo sapiens) [1]): 300 nM
- Kd [2]: > 1000 nM
- Kd (CCR7 (Homo sapiens) [3]): 800 nM

Molecule: CCL21 (from UniProt O00585)
- Kd (CCR7 (Homo sapiens) [4]): 700000 nM

- Kd [5]: 200000 ± 100000 nM
Molecule: TDDYIGD-NH2 [CCR7 5-11 peptide (TDDYIGD-NH2)]
